According to PMC8893600 (Kidney international, 2021):

Target: p65 protein used for surface plasmon resonance (UniProt Q04206 1-551)
Assay: SPR

p65 protein used for surface plasmon resonance, sequence (Q04206 whole entry): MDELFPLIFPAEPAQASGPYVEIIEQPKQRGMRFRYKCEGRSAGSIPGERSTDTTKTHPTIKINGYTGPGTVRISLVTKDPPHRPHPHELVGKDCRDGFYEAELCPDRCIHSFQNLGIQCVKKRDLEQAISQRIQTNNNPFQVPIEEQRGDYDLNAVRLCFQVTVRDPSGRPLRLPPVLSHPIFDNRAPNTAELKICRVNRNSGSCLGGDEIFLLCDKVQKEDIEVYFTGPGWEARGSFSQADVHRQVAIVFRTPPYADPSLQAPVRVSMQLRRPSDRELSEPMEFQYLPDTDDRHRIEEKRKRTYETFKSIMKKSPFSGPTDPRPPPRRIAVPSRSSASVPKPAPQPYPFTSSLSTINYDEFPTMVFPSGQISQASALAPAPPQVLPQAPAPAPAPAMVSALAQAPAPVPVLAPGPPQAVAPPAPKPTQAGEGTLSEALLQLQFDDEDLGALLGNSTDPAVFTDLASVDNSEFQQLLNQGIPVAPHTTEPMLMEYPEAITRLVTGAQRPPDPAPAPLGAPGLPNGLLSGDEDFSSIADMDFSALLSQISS

B1: ANXA1 protein used for surface plasmon resonance (natural protein, UniProt P04083 1-346, looked up)
chain: MAMVSEFLKQAWFIENEEQEYVQTVKSSKGGPGSAVSPYPTFNPSSDVAALHKAIMVKGVDEATIIDILTKRNNAQRQQIKAAYLQETGKPLDETLKKALTGHLEEVVLALLKTPAQFDADELRAAMKGLGTDEDTLIEILASRTNKEIRDINRVYREELKRDLAKDITSDTSGDFRNALLSLAKGDRSEDFGVNEDLADSDARALYEAGERRKGTDVNVFNTILTTRSYPQLRRVFQKYTKYSKHDMNKVLDLELKGDIEKCLTAIVKCATSKPAFFAEKLHQAMKGVGTRHKALIRIMVSRSEIDMNDIKAFYQKMYGISLCQAILDETKGDYEKILVALCGGN
- Kd: 13 nM
